According to a protein production outcome set (Wang et al. 2014):

Experiment: label from the status in PepcDB records

Sequence: IDTNLLYVFFTSGSTGIPKGVSIAHKSVIDYTFWVCETFKFDENEILANQAPFYFDNSILDIFSSVKSGATLHLLPNHLFAFPNKILECLEKEKVSTIFWVPSVLIYFANTEALNNFSLNALKKMLFCGEIMPNKQLNIWRKHLPNALFANLYGPTEITDVCSFYIINRTFKDEEL
- protein production: failed

Sequence: MKCIESLGKTVDEAVKKALSELKVTEDKVEIKVIDEGSKGLLNIIGKREAKVKVTLKTDYIDEVRTFLRKVFEDMNLVIEIKIKEIGNDLFVNLFGKNIGLLIGYRGETLDSLQYLVNLVANKNHADGKYKRVILDTENYRAKREETLKRLALKISKRVKEEKSPFKLEPMNPYERRVIHSALQNDKYVRTYSEGEEPHRRVVVELKKS
- protein production: not failed

Sequence: VFGVKEWECEVLSNKNVSTFIKEFVVKLPEGETMNFKSGSYAQIKIPKYNIRYADYDIQDRFRGDWDKMDAWSLTCKNEEETVRAYSMANYPAEGNIITLNVRIATPPFDRAANKWKAGIKPGISSSYIFSLKPGDKVMMSGPYGDFHIQDTDAEMLYIGGGAGMAPLRAQILHLFRTLKTGRKVSYWYGARSKNEIFYEEDFREIEREFPNFKFHIALSDPQPEDNWTGYVGFIHQVIYDNYLKDHDAPEDIEYYMCGPGPMANAVKGMLENLGVPRNMLFFDDFG
- protein production: not failed

Sequence: MAQQTPLYEQHTLCGARMVDFHGWMMPLHYGSQIDEHHAVRTDAGMFDVSHMTIVDLRGSRTREFLRYLLANDVAKLTKSGKALYSGMLNASGGVIDDLIVYYFTEDFFRLVVNSATREKDLSWITQHAEPFGIEITVRDDLSMIAVQGPNAQAKAATLFNDAQRQAVEGMKPFFGVQAGDLFIATTGYTGEAGYEIALPNEKAADFWRALVEAGVKPCGLGARDTLRLEAGMNLYGQEMDETISPLAANMGWTIAWEPADRDFIGREALEVQREHGTEKLVGLVMTEKGVLRNELPVRFTDAQGNQHEGIITSGTFSPTLGYSIALARVPEGIGETAIVQIRNREMPVKVTKPVFVRNGKAVA
- protein production: not failed

Sequence: MNHHHHNHHGEAGFKRKVDYLDRPERSEVLAPEEFLQRIPMEKTASILDLGAGTGFLTIPAAKKVENTVFALDLDTKMLELIETKAKTAELANVKTLEASMDDIPLETSSVDVVLASLVLHEADSLADVLREVSRVVKTGGYFASLEFDTKGTDLKGPPMEIQISAEKLKEELAGFGFEVVQNWELDEGMYVSIAEKKE
- protein production: failed

Sequence: MAQQFKDYFSEKSDVYRSYRPGYPTELFAWLAGLPARRDAALDCGCGTGQASVALAEHFARVYAVDPSAGQIKSATPHKRVEYRVAPAEETGLPDASVDLVIAAQALHWFDFSRFYAEVRRVARGGAVFAAFTYGLLAIDDEIDRIIGRFYRDVIGPYWPPERAHVDAGYRTLPFPFAEIETPTFAMKAEWDLGHLMGYFETWSAVKEYRRLRGDDPLELVAGDLATAWGDPALVRQVSWPLVLRAGRIE
- protein production: failed

Sequence: MSLPRTLAFVSTLLLAAFCALPAQADSFIMRLLNKPVPGGVAVVDLGEEGPPPRAFYQGKPVLVVREEGRRWIAVVGIPLSTKPGPQKLEVRAATGNHEERFSVGSKHYREQRITLKNKRQVNPLPEDLKRIERELAEQTAAYRRFSPGLPSNLMLDKPVDGPLSSPFGLRRFFNGEERNPHSGLDFAVPAGTPIKAPAAGKVILIGDYFFNGKTVFVDHGQGFISMFCHLSKIDVKLGQQVPRGGVLGKVGATGRATGPHMHWNVSLNDARVDPAIFIGAFQPEGHHHHHH
- protein production: not failed

Sequence: MNVDFINPFLDSLLNVLKTMANMELKPGKPNLKKDNLAKGDVSGLIGMVGPQTKGSLSITFEETLILEIMNKMLGEKPESIDEEVTDLVGELTNMVTGGAKNLLSDKGYEFDMATPIVVSGKNHTIAHKSDGQKIIMPFSSIYGTAYIEICFEG
- protein production: not failed

Sequence: MNEVKESLRSIEQKYKLFQQQQFTFIAALEHCRENAHDKIRPISSIEQVQSYMEHYCNNSTHRRILIMFMDICSELSKLCQHFEALHSGTPVTNSLLEKCKTLVSQSNDLSSLRAKYPHEVVNHLSCDEARNHYGGVVSLIPIVLDFMKEWIAHSEKLPRKVLQHGTT
- protein production: failed

Sequence: ALTGHTVLVGWDGEASERIVELLGQDTSTSRAGLVICDSIITENPLPGRASFIKGDSLDSPAVLSRAGVVGAQRILVHTQSDSLTLAIVLTLKSLGPTGHVVAHFNNSERAALARTYAPELECTSNMAIEMLVRSAQDPGSSSVIT
- protein production: failed

Sequence: MALSKRELDELKPWIEKTVKRVLGFSEPTVVTAALNCVGKGMDKKKAADHLKPFLDDSTLRFVDKLFEAVEEGRSSRHS
- protein production: not failed

Sequence: MKKSKYLTLLSVAALTLLTSGLGSQAVLADTDTAQTTNTSTNTTTDTSKTSTALNHQEAKGQKLTTPVGTLPNAQDAISNKAVLKRVHGYSWKTTPDVSAAGSQKATVVITYTDGTTSEVEVDLEVTGTGCASQNSPVAKTGLTVKVGKSLTARSAISNLSRLRNVDSVTWKQAPSTAKAGTVKGTVLVTYTDKSTDTVDVTVKVSSVVTTKKSVKKSKKKQYVTKTRKIILDRPGKNKTITQKVKLSRTVTTTTTTTKTYTDGKLTKTSKKAKKSYGKWSKGTWKSYKVPAISGYKRSTTKVKAKAVTSKTKNITVKVSYKRVLHKPANAPYYDPADMRAKTGAYYFQSSEKRAYPNLAKYKNVWIRVSILGNRVYVMSGKKVIYTMYSSAGRFEMTNGKYQSDTPRGTFYLKAAYGPSFMSSDGVGARYYMAYYGSDYLFHSVPINNYGSGVYYKGYHYGYGGVGSTAHLTVQGTNPDSLGCIRLTLSDARWLYGQRTSGKLKVGTKVVIKYK
- protein production: failed

Sequence: AVPGEVRLQVKDLRSVGGSALNGVNMTLRAGQIYGIAGVGGNGQAELANALMGLPQATEGDIHLAPFGDLRNASAEQRRQLRIASIPADRYGAALAGSLSVAENFGIGNIHSGHYGSFWRLGYKRLKQDAQRAVESFDVQGVRSLDQKAALLSGGNAQKLVIAREFSRDPQLVLVHSPSRGLDVRATQAVHDRLRAARDAGAAVLLISEDLDEVLALADRIGVMNGGRIVAEFDHPADRQAIGKAMVSHD
- protein production: failed

Sequence: MNLETIPSGELTVSNQRSISRLVAQAGQMLLAHGAESTLVCDIMRRIGLACGVHEVAVALSANALVVTTVMDGHCITTTRSCADRGINMRVITQIQRICIMMERGLLDAAMAQKKLNTISPERYNRWLVVLMIGLSCAAFSHLAGGDWGVFIMTFLASAGGMIVRQEIGHRHFNPLLNFAATAFVTTLISAQAEIYQIGNLPTVAMASSVLMLVPGFPLINSVADMLKGHINMGIARFVMASLLTLATCLGIVAAMSVTGIWGWAI
- protein production: failed

Sequence: MAYVKERIYESMFIIAPNVPEEERENLVERVKKIIEERVKGKIDKVERMGMRKFAYEIKKFNEGDYTVIYFRCDGQNLQELENFYRVTPEIIRWQTFRRFDLEKKERKAQREKAAAEATESSEGGSED
- protein production: not failed

Sequence: MGSLVHVKEATVITPSDQTPSSVLSLSALDSQLFLRFTIEYLLVYPPVSDPEYSLSGRLKSALSRALVPYFPFSGRVREKPDGGGGLEVNCRGQGALFLEAVSDILTCLDFQKPPRHVTSWRKLLSLHVIDVLAGAPPLVVQLTWLRDGGAALAVGVNHCVSDGIGSAEFLTLFAELSKDSLSQTELKRKHLWDRQLLMPSPIRDSLSHPEFNRVPDLCGFVNRFNAERLVPTSVVFERQKLNELKKLASRLGEFNSKHTSFEVLSAHVWRSWARSLNLPSNQVLKLLFSVNIRDRVKPSLPSGFYGNAFVVGCAQTTVKDLTEKGLSYATMLVKQAKERVGDEYVRSVVEAVSKERASPDSVGVLILSQWSRLGLEKLDFGLGKPVHVGSVCCDRYCLLLPIPEQNDAVKVMVAVPSSSVDTYENLVTSPNA
- protein production: failed

Sequence: MPEHTPAPTPHRAVYGFAFYMLFTVLFLVYVTWALLPVEFGLHSYLPDKYFAVFVPFLVLVFAWFFAFLIYPAINLSMTVDVDSIASVVDPKLALPKGTEFTSWSQLQKGKVSQDSASKKASPVNCNLCRTFHQPVTRAPIPPLRFLDLQEVNTAYYN
- protein production: failed

Sequence: MKKTWKVFLTLVTALVAVVLVACGQGTASKDNKEAELKKVDFILDWTPNTNHTGLYVAKEKGYFKEAGVDVDLKLPPEESSSDLVINGKAPFAVYFQDYMAKKLEKGAGITAVAAIVEHNTSGIISRKSDNVSSPKDLVGKKYGTWNDPTELAMLKTLVESQGGDFEKVEKVPNNDSNSITPIANGVFDTAWIYYGWDGILAKSQGVDANFMYLKDYVKEFDYYSPVIIANNDYLKDNKEEARKVIQAIKKGYQYAMEHPEEAADILIKNAPELKEKRDFVIESQKYLSKEYASDKEKWGQFDAARWNAFYKWDKENGILKEDLTDKGFTNEFVK
- protein production: failed

Sequence: MKKVLILFAHPRMEKSRANTTLLKHIPSAENITFHDLYELYPDFNIDVEAEKQLLLLHDIIIWQHPFYWYSCPPLMKQWIDMVLEFGWAYGPGGTALKDKIIFNAITTGGANATYNAGGHNRFTMQEYLRPFEQTAHLCKMIYFPPFLVQGSHRLTDEELQRFSQQYVILLTKMSQGNFEEAHMKDITFLNEICVKPR
- protein production: failed

Sequence: MKPPSAIMETALYADDLDAAEAFYRDVFGLEMVLKLPGQLVFFKCGRQMLLLFDPQESSRADANNPIPRHGAVGQGHFCFYADDKAEVDEWKTRFEALEIPVEHYHRWPNGSYSVYIRDPAGNSVEVGEGKLWGFE
- protein production: not failed

Sequence: MSSERDLVNFLGDFSMDVAKAVIAGGVATAIGSLASFACVSFGFPVILVGGAILLTGIVCTVVLNEIDAQCHLSEKLKYAIRDGLKRQQELDKWKRENMTPFMYVLNTPPVI
- protein production: failed

Sequence: MERAFLRYVPILAFITIMTMYVEMVILPSLPEIENQFSITSSEASWVLSSETLAGMTLAPFLGKLADSYGRKKVLISILVVYILSVFLTAISPNYSILLISRSIQGIGLSINPIAYTILRERIPDRELPIAQGIIASTFAIGAAVALPIGSYISQYFSWEFAYETAIPLLILSTIIIYVILPSSESKGSDRKIDDVGVILLSLSFLILGIGLTEAPTWGWTSLQFFTSLLLSILLFYLFALHISKSRNPIIDPYDFKNPNVAVPLISSFITGFGLFLTFQSLVFIFELPSPIGYGMTILQTGETMAPIALIILIAGPFFGRLVTKIGYMKVILTSSSVSSFLLLFLAYIISLRISVLELMGFLSLILFFISGMNVTRVTLLIASSKRERMSTLTGTNTSMRLMGNTLGPIVVGSLEDTFKTPIFEGYLNNIPIFAFVPSRLAFEYAFLISMATTVLVTILATRIRERPSTTTYA
- protein production: failed

Sequence: LRARTYGEGGFRVERVLEERPAFTRVQFSYLSDGLRVHGFANLPKGRGPFPVVVVLHGYVEPSRYRLLAYTTPYADFLAERGYLVLHPNFRGHPPSEGAPAQGLRHVYAVDVLNLLAEVRRGAFPQADPAR
- protein production: failed

Sequence: VWRPKSVSRDDVMVTEYGAVTSERPLPAGTTYSATSVTPPDDPEVLRTSGRDYPADIESRYTGVPASTSAQVGPFTDRLTEDSDSPYQTAATIEQWLEANKNYSLNVSQPPEDDVASEFIFQMDKGYCEYFATSMVVMLRSQDIPARYVVGYSTGERTGQNQYTVRGMNAHAWVEVYFEGVGWVKFDPTPGQ
- protein production: failed

Sequence: MDKLKVAELFAGVGGFRLGLENTKEKIFDVTWANQWEPSKKIQHAFDCYNSRFITGEHVNKDIALISDEEIANTKADMVVGGFPCQDYSVARSLSGELGIQGKKGVLFWQIIRFIQNTYPKYLLLENVDRLLKSPSSQRGRDFGVMLSTLNELGYNVEWRVINAADYGNAQRRRRVFIFGYKQDLNYADLIDKYSLEDIVYNSGMFAKAFPIEKEPNKNRVNSSTITNDIVDISNNFSFQFYNSGIMKNGEILTIDTIPIFEKPTPLKEIVLKEVDDKYSLADEKIEKFKYLRGPKKIKRTSKDGHEYYFSEGGMSEFDSLDLPARTMLTSEASVNRSSHFLSIGGKFRTLTPIEAERLNGFPDNWTDTMPDRMRYFCMGNALVVPLVTRIGNQIEKIEKITNDDFSQLKLF
- protein production: failed

Sequence: MDIKNSEYRFSPLVIGLHWLTVILIIAVYASMELRGLAPKGALRDAMKSLHYLLGLSVLVIVVIRIGVRIQAGVKPAIQPPMPRWQATLADGMHYALYSFMLAMPLLGWLTLSAAGKPIVLFGLPVPSLIGTDVALSRQLKDVHEALATLGYVLIGLHAMAALLHHYVMRDNTVVRMLPGRRP
- protein production: not failed
